# ± gives the uncertainty stated by the source.
# Experiment: amyloid nucleation score (Sup35N fusion, yeast selection) (log enrichment); library NNK2; higher = more nucleation; inactive = no reads after selection
# How it was run: (§1)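 Plasmid inserts were Illumina-sequenced at input and output from psi-negative yeast expressing Sup35N fused to peptides of 20 random codons. The yeast were induced with 100 μM copper sulfate for 24 hours and grown 7 days at 30°C on medium lacking adenine and uracil, and sequences with under 100 input reads were excluded. Nucleation score is the DiMSum log enrichment of output over input reads, centred on the mode score of non-aggregating sequences.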
row,Substance,amyloid nucleation score
1,YSMICGLHCSVLFRGNSEGT,4.782 ± 0.039
2,YSMIDTNQFF,inactive
3,YSMRWFVGGFILGYCVCGQV,6.256 ± 0.037
4,YSRGMGVSNEMRDYFNKRDI,inactive
5,YSSPGSSPAFQRFGVVRRMN,inactive
6,YSTIKIHLPGLVVRNQSLVR,inactive
7,YSTYRASVGFARRGMPLPIL,0.015 ± 0.76
8,YSWVEPRSRRAVEHDS,0.551 ± 0.3
9,YSYPRS,inactive
10,YTGIESE,0.768 ± 0.21
11,YTHVNRWTCCSSIEICDWSY,6.957 ± 0.047
12,YTIIKWPL,-0.21 ± 0.79
13,YTLFNDASRLFD,inactive
14,YTLFPAVLECDQVLYVSVNF,6.491 ± 0.037
15,YTNSMTHAYTVLWRYMSPTN,3.52 ± 0.084
16,YTRGTNGLWLYRWVMVRGSN,-0.649 ± 0.36
17,YTSGMFFMPMQALASETPHA,-0.924 ± 0.61
18,YTSSRGHYSIMGVIRMCDRL,0.118 ± 0.25
19,YTVWGKY,0.288 ± 0.53
20,YVANGPFCPDFLLLAGWYGV,0.447 ± 0.53
21,YVATMGKGLNYLSCLEDNAA,0.282 ± 0.56
22,YVCVNWTFTFLFLCLVGRSL,0.36 ± 0.22
23,YVDGFYNGERWRLVLHVWDL,-0.598 ± 0.39
24,YVLFFHGIMSCTPMQYQYMG,inactive

row,Substance,amyloid nucleation score
1,YVLSYSCLDLYSIHL,5.64 ± 0.073
2,YVNFD,-0.299 ± 0.48
3,YVPMQY,0.382 ± 0.53
4,YVPPQWRIVDRNVSY,0.012 ± 1
5,YVRAGRVNVILCVSENCIGG,8.27 ± 0.049
6,YVRNFPLGLSV,-1.63 ± 1.1
7,YVSMLTNLTDLTSM,0.572 ± 0.33
8,YVSNLEK,-0.073 ± 1
9,YVTCCSGVGVMLFRCANLNC,5.37 ± 0.082
10,YVTFMKGIGLSVFSADIQ,1.83 ± 0.2
11,YVVVINSEQNVETFKGFL,inactive
12,YVWSAKHSNIDCRVES,0.877 ± 0.36
13,YWLYMVAHAPKSFIE,0.509 ± 0.8
14,YWSMSVMVNMKFPCGNCWVR,2.24 ± 0.11
15,YWYASSSSNIWYPEVCKCPV,-0.77 ± 0.79
16,YYCTKASTLRSGGFRFMPMT,4.9 ± 0.051
17,YYEMFCYSCPSDRPGISNDA,8.827 ± 0.035
18,YYFWSTFGSYNYLIFCYSIL,-0.656 ± 1.1
19,YYGCCMVLTEPVG,6.29 ± 0.072
20,YYGLVSGGLQYVCMFGSFIY,inactive
21,YYHIDYYRYWPALLGCFKYS,-0.898 ± 0.34
22,YYMRRVSGLDISGRMCCKSV,0.106 ± 0.42
23,YYPGL,-1.45 ± 1.1
24,YYQYGWEYARLWLIDNILHG,-0.064 ± 1.1

# Experiment: amyloid nucleation score (Sup35N fusion, yeast selection) (log enrichment); library NNK1; higher = more nucleation; inactive = no reads after selection
# How it was run: as §1
row,Substance,amyloid nucleation score
1,AAAFSSGGKLFHAGCWRRMM,-0.681 ± 1.6
2,AACLCLYAFGRYVVTRCYGR,-0.068 ± 0.69
3,AAIAWVLN,0.112 ± 0.58
4,AALENAGWLMAMANKRPSKR,-0.614 ± 0.64
5,AAMAYFWADRLKHGFYTW,4.74 ± 0.092
6,AAMYSLICNPI,0.518 ± 0.3
7,AASRLVRDDWTLISGHPSKA,0.844 ± 0.73
8,ACELGFLPKHRHRGLVFVEG,-0.725 ± 0.8
9,ACHQGGMTSPNTRSTLFRVW,0.8 ± 0.51
10,ACTYYIWVLSCAGPRAGGKE,7.257 ± 0.048
11,ACVLTAKMAARRIHMWQGLF,-0.744 ± 0.84
12,ACWFMCFYRFPAAWY,0.079 ± 0.3
13,ADVATMSRGEKGASGGLK,0.508 ± 0.54
14,AEAISSYHGWSYYLHHTPFS,0.654 ± 1.2
15,AEGCRIPGRQSYRYGDICPR,-0.373 ± 0.39
16,AELILFIVLELMKRAFLSS,-0.795 ± 0.4
17,AESSLLSLIVFNTNYFEAGQ,6.753 ± 0.046
18,AEWLWEVGGMGCQVKGEEAR,-0.34 ± 0.36
19,AFLTQTSHSQTT,0.048 ± 0.74
20,AFMYYMKPSMPIYELRILEG,inactive
21,AFRVS,-0.513 ± 0.63
22,AFSTG,inactive
23,AFTFGYTFQFYLLASTYMIR,inactive
24,AFVEVFHQGLLRSAMSQMVS,-0.378 ± 0.74
25,AFYLN,-0.055 ± 0.34

row,Substance,amyloid nucleation score
1,AGFLS,-0.388 ± 0.62
2,AGGAP,0.501 ± 0.89
3,AGGLLYMLTHLNDVHSVKRY,1.12 ± 0.93
4,AGGQGRLSRKVYSTMWVESL,1.17 ± 0.21
5,AGHLGWARFVYTLLSEDTVH,0.031 ± 0.79
6,AGKGLAEARTYS,inactive
7,AGLKV,-0.479 ± 0.4
8,AGNCRDW,-0.857 ± 0.66
9,AGPDSSGAGGGSARFLFPEL,0.184 ± 1.2
10,AGSGMLSKLVLLSRKSVSCN,1.02 ± 0.74
11,AGVLAV,-0.246 ± 0.46
12,AGWKTRHQGRVIVLGFWEGW,0.059 ± 0.41
13,AGWYINYTGKRDDARLLY,0.187 ± 0.86
14,AHKWCVVCQTV,0.338 ± 0.52
15,AHPSNSYGRNNGVLASHRWD,-0.847 ± 0.41
16,AHTLSYVFWLYHMDQCVLFV,-0.127 ± 1.4
17,AIFGVTPKSVITTYNFTLHM,6.01 ± 0.088
18,AILRHRSVNSGGELCGSKFP,0.293 ± 1
19,AIMCKYLRKLVLMFFSR,0.811 ± 0.55
20,AIRSFRARIGN,0.177 ± 1.2
21,AKMIDR,0.399 ± 0.5
22,ALDIFTNTKSVIGYVGIGKC,0.194 ± 0.52
23,ALDVWVLMKHSYGLSTVDAL,inactive
24,ALFVVCYRYFVESGTKWRRT,-0.009 ± 0.28
25,ALKGSRHDL,-0.037 ± 0.73

row,Substance,amyloid nucleation score
1,ALKHPML,-0.815 ± 0.49
2,ALKLARG,-0.019 ± 1.2
3,ALLHVNLIVGNYTSGG,3.28 ± 0.13
4,ALLNVQVRGYVGLGR,1.4 ± 0.52
5,ALNLKCIRLSGV,0.496 ± 0.47
6,ALRIHGLCFEVVCMRIWSRR,0.436 ± 0.46
7,ALSGCERRNHLSCRSNLRDG,-0.542 ± 0.91
8,ALSYGIVAMMVVIGPGIVVC,0.388 ± 0.27
9,ALVGMRQITEILVTRDRQWG,0.332 ± 0.27
10,ALVRL,0.085 ± 0.46
11,ALWVNVMQARAIGSGFGRTK,-0.415 ± 0.58
12,ALYKSPLVNRSYAFLYSGA,0.964 ± 0.69
13,AMEPKVWRDGLLPG,-0.471 ± 0.47
14,AMFNIW,-0.328 ± 0.47
15,AMGARMFRNYRTACAHLLQW,0.019 ± 1
16,AMGRGLNWCPIGFVVSDMQR,1.39 ± 0.67
17,AMLSIVSISAS,1.39 ± 0.69
18,AMRGYCRAFQIWVWICGLSL,0.027 ± 0.86
19,AMWLFACGLWLLLPRYIGRC,-0.485 ± 1.2
20,ANGILV,0.499 ± 0.28
21,ANSVQG,0.9 ± 0.73
22,ANTLRKMNLLSELVLNLLTG,3.3 ± 0.14
23,ANWCF,-0.213 ± 0.5
24,APAAIINFLDPHICARMAMF,-0.513 ± 1.3
25,APDDSRQCSETESSGFLTHW,0.366 ± 0.47

row,Substance,amyloid nucleation score
1,APEFFNSDRASIAKF,-0.558 ± 0.77
2,APMNVLEVTFSYSADLTVVV,0.167 ± 0.79
3,APSWYRSLMRSSA,0.159 ± 0.34
4,APVVGTNSTTGEYSLTPSSW,0.741 ± 0.41
5,AQARWCWRLH,0.963 ± 0.69
6,AQQLLIGDDDLDTAVEFDDM,-0.509 ± 0.86
7,AQTWGESKTLPENLANYDAY,0.241 ± 0.56
8,AQVNLIPNLRETLYDPAISR,0.665 ± 0.55
9,ARATS,-0.53 ± 0.52
10,ARRASVEFSYSTLERGMWRC,1.9 ± 0.18
11,ARRGVVNPYLSVEFFFRRGL,0.493 ± 0.68
12,ARSTSALQL,-1.97 ± 1.8
13,ARVGFTLT,-0.265 ± 0.87
14,ASAFFRVWSLNKIICYEVSD,4.56 ± 0.051
15,ASFRNRPCVQCPGLCILRLS,0.002 ± 0.24
16,ASGDMSDWISWLGSMRCKIR,-0.082 ± 1
17,ASLTFFS,0.283 ± 0.76
18,ASNAWCMYYMLATGAMEISL,-0.617 ± 0.86
19,ASPMVRISYLNDHKQLKKF,-0.414 ± 0.28
20,ASSCLNSRFGCQRFLGYLWL,0.33 ± 0.39
21,ASSLDLFNWASVWFFNYIGA,-0.887 ± 0.86
22,ASTSYPWKSGVMVGGKLKNP,0.287 ± 0.53
23,ASYMYAPSIFYSERLKWNPS,0.226 ± 0.78
24,ASYTIND,-0.57 ± 1.1
25,ASYYQWLSLFFLTNRPFFGG,-0.809 ± 1.2

row,Substance,amyloid nucleation score
1,ATCCNSWIAF,7.035 ± 0.054
2,ATDSWDC,0.278 ± 0.33
3,ATKSRLVNILTGKDEALTGL,-0.684 ± 0.42
4,ATLMYWASSWSCWFTKGTAV,-0.413 ± 0.37
5,ATMCVTLIWCYSSKQRMYKK,1.08 ± 0.15
6,ATMYICTRHSTAYGVFHSFV,0.105 ± 1.2
7,ATSALGCVTHVIMSNILTMN,0.106 ± 0.34
8,ATSPLCCRH,0.022 ± 0.28
9,AVCDKVLRSVEWIFPGLNDS,-0.496 ± 0.51
10,AVEGCVFCWIRCVIRFLV,-0.642 ± 0.69
11,AVGIANFTAPKCWLDNVGP,0.085 ± 0.59
12,AVHICYNYRSYSI,0.5 ± 0.95
13,AVQKVRCRWN,-0.009 ± 0.23
14,AVRDDMDY,-0.059 ± 0.22
15,AVVERFHL,-0.132 ± 0.39
16,AWIDCVSTNTTLDIPSLGP,0.402 ± 0.24
17,AWLNRSYRMLHPMWGVCMDM,1.26 ± 0.85
18,AYCVH,0.202 ± 0.59
19,AYILRWFFTSECRSVQSTSK,-0.105 ± 0.45
20,AYLGASREIYCYGPMYYMLP,2.97 ± 0.098
21,AYPLKTFIFYHGLMIWFNAM,0.827 ± 0.84
22,AYSDVYQLFYLKYMFCNWLL,2.89 ± 0.26
23,CACKLVQSIYLCESLGHPRS,5.73 ± 0.06
24,CAKLCKASHSVFIDDRRCVR,-1.02 ± 2.4

# Reference: the supplement of paper PMC12042874
